Laboratory results taken from PMC6517241 (Chembiochem : a European journal of chemical biology, 2019).

Columns and labels:
[1] = tested on: SH-SY5Y human neuroblastoma cells; experiment: Flow cytometry quantitation of cellular uptake, SH-SY5Y; format: cell-based
[2] = Cellular toxicity; format: cell-based; conditions: Figure S6
[3] = ref 5b; cited from earlier work

| Substance | Potency of L- and D-enantiomers as pore-forming antibacterial peptides [3] | other results |
| --- | --- | --- |
| L-Aβ42-TAMRA: L-Aβ42 N-terminally labeled with 5(6)-Carboxytetramethylrhodamine (TAMRA) | – | Cell fluorescence after incubation at 4 °C (membrane binding) ([1]; SH-SY5Y, 2 h, 4 °C, flow cytometry (Figure S12)): low fluorescence; Influence of N-terminal TAMRA modification on cellular toxicity [2]: not influence cellular toxicity to any significant degree |
| L-Aβ42: natural L-stereoisomer of the 42 amino acid isoform of Amyloid β | – | Fraction taken up through chirality-dependent mechanisms (class I) ([1]; interpretation of the ~5:1 ratio): approximately 80% |
| cecropin | equally potent | – |
| magainin | equally potent | – |
| melittin | equally potent | – |
